The values below come from patent CN112794907A (ANHUI ANKE BIOTECHNOLOGY GROUP CO LTD, dated 2021).

In test [1] the target is T1, rhOX40-Avi-His-bio (human, UniProt P43489 29-214, biotin joined covalently to the Avi tag by BirA).
T1 construct: range 29-214; Biotinylated form of rhOX40-Avi-His, captured on the SA chip for SPR; also called 生物素标记的抗原rhOX40-Avi-His-bio; huOX40; not shown: Avi tag and His tag from the vector pCD-Avi-His
T1 sequence (looked up): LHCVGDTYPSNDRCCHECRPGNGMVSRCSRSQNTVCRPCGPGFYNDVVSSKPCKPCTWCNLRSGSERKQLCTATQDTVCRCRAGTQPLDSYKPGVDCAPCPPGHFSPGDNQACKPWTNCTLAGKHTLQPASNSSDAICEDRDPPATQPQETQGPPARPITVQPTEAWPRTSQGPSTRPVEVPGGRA
Nature of the test: SPR.

For test [2], the target named is T1, rhOX40-Avi-His-bio. Nature of the test: SPR, Biacore T200, rhOX40-Avi-His-bio on SA chip, antibody as analyte.

A word on the Kd: it is a measure of binding affinity in units of concentration.

B1: 全人源抗huOX40单克隆抗体B11-11 (antibody, IgG1, V domains shown)
VH: DVQLQESGPGLVKPSETLSLTCTVSGGSISADGFIWGWIRQPPGKGLEWIGGITTNGGYTDYNPSLKSRVTISVDTSKNQFSLKLSSVTAADTSVYYCARWFWDVSYGFDTWGQGTLVTVSS
VL: DIVMTQSPLSLPVTPGEPASISCRSSQSVDSDEYSFMHWYLQKPGQAPQLLIYRTDQRASGVPTRFSGSGSGTDFTLKISRVEAEDVGVYYCQQTPTYTFGQGTKLEIKR
Consider B1, for which, in the test with rhOX40-Avi-His-bio [1], the “fold increase of affinity over B11” value is ~650 倍. For the same molecule, the Kd in the test with rhOX40-Avi-His-bio [2] is around 0.776 nM.

B2: 全人源抗huOX40单克隆抗体A2-1 (antibody, IgG1, V domains shown)
VH: DVQLQESGPGLVKPSETLSLTCTVSGDSVSDSGAYWVWIRQPPGKGLEWIGTIAPARGDTLYNPSLKSRVTISVDTSKNQFSLKLSSVTAADTSVYYCARDVWYIDYWGQGTLVTVSS
VL: DIVLTQSPATLSLSPGERATLSCRASEDIGTWLAWYQQKPGQAPRLLIYHTDLRATGVPTRFSGSGSGTDFTLTISSLEPEDFAVYYCQQYASYPLTFGQGTKLEIK
Regarding B2, the “fold increase of affinity over A2” value with rhOX40-Avi-His-bio [1] was ~540 倍. In addition, in the test with rhOX40-Avi-His-bio [2], the Kd was around 0.2 nM.
